Measurements reported in patent publication US20060009452A1, “Therapeutic targeting of PARC/CCL18 and its signaling in pulmonary fibrosis” (priority 2004, published 2006).
“Also recorded” adds a separate entry of the source.

Assays:
ERK1/2 = assay: Immunoblotting for phosphorylation of ERK1/2; assay type: cell-based, human; settings: lung fibroblasts LF1/LF2 activated with rhPARC
lung fibroblasts = assay: Western blotting of fibroblast culture supernatants for collagen type I / α1(I); assay type: cell-based, human
Procedure: Collagen Production Assays. Collagen was quantified as described elsewhere (Atamas S P et al.). Briefly, fibroblasts were cultured with β-aminopropionitrile (Sigma) to prevent collagen cross-linking, and Western blotting assays for collagen were performed using rabbit affinity purified anti-collagen type I antibody (Rockland, Gilbertsville, Pa.). Before electrophoresis, samples were reduced and denatured by boiling in Laemmli buffer containing β-mercaptoethanol. Human purified collagen type I (Southern Biotech, Birmingham, Ala.) was used as a positive control in these assays. The identity of collagen bands was confirmed by sensitivity to pepsin and collagenase (both from Sigma) digestion, as described (Atamas S P et al.). Under these conditions, pro-collagen appears as a single or double band around 175 kDa (Gaidarova S et al., Stefanovic B et al.). Images were collected using a Storm densitometer and band densities analyzed with ImageQuant software (Molecular Dynamics, Sunnyvale, Calif.).
Western blotting assays for collagen were performed using rabbit affinity purified anti-collagen type I antibody (Rockland, Gilbertsville, Pa.). Before electrophoresis, samples were reduced and denatured by boiling in Laemmli buffer containing β-mercaptoethanol. Human purified collagen type I (Southern Biotech, Birmingham, Ala.) was used as a positive control in these assays.
(§1) Collagen was quantified by Western blotting and the identity of collagen bands was confirmed by sensitivity to pepsin and collagenase digestion as described elsewhere in Atamas et al. (Am. J. Respir. Cell. Mol., 29:743-749 (2003)). In these assays, pro-collagen appears as a single or double band with a molecular weight of approximately 175 kDa (4,27,28).

TGF-β1 = TGF-β1 ELISA of fibroblast supernatants and lysates; assay type: cell-based, human; settings: 300 ng/ml rhPARC
Text: Transforming Growth Factor-β ELISA Assays. ELISA kits for TGF-β1 and TGF-β2 were purchased from R&D Systems. ELISA for TGF-β3 was custom developed using a DuoSet ELISA Development System (R&D Systems) following manufacturer's recommendations. […] Recombinant human TGF-β1, TGF-β2, and TGF-β3 from R&D Systems were used in serial dilutions for calibration of the assays. The minimal detection level in these assays was 10-20 pg/ml of TGF-β. Low serum cell culture medium containing 0.5% dialyzed fetal bovine serum had no detectable TGF-β and was used as a negative control in these assays. Each of LF1-LF4 cultures was tested in duplicates for each time point in at least three independent experiments.
Transforming Growth Factor-β1 ELISA Assays. ELISA kits for transforming growth factor (TGF)-β1 were purchased from R&D Systems (Minneapolis, Minn.), and fibroblast culture supernatants and whole cell lysates after 3, 6, 12, 24, 48, and 72 h activation with rhPARC were assayed in duplicates for total TGF-β1, according to the manufacturer's instructions. Low-serum cell culture medium containing 0.5% dialyzed fetal bovine serum had no detectable TGF-β1 and was used as a negative control in these assays.
ELISA kits for TGF-β1, -β2, and -β3 were purchased from R&D Systems and assays performed following manufacturer's recommendations. […] The minimal detection level in these assays was 10-20 pg/ml of TGF-β. […]

Sp1 = assay: EMSA of nuclear lysates with Sp1-specific probe; assay type: cell-based, human; settings: consensus and collagen α2(I) promoter-specific probes
Procedure: NushifTM kits for EMSA and supershift assays and reagents for preparation of nuclear extracts were purchased from Active Motif (Carlsbad, Calif.); the procedures were performed according to manufacturer's recommendations, including end-labeling of the specific probes with [γ-^32P]ATP. In addition to the [γ-^32P]ATP-labeled Sp1 consensus probe ([NT] ID NO:5), wild-type and mutant ([NT] ID NO:6) oligo competitors, and an Sp1-specific antibody from the kit, an oligonucleotide representing the Sp1-binding region in the α2(I) collagen promoter ([NT] ID NO:7) was used as a probe (after end-labeling with [γ-^32P]ATP) and as a cold competitor. […] Nuclear extracts were adjusted for total protein content to ensure equal loading. Gels were exposed to a Phosphorimager screen and scanned using a Storm Phosphorimager (Molecular Dynamics); band densities were analyzed with ImageQuant software.

mouse fibroblasts = assay: Collagen Western blot in wild-type and Smad3-/- mouse fibroblasts; assay type: cell-based
Procedure: as §1
Transient transfection with 1 μg of Sp1 and Smad3 dominant negative mutant constructs abrogated basal and PARC-stimulated upregulation of collagen production, whereas transfection with 0.2 μg of the constructs inhibited the response to PARC stimulation but not basal collagen production (FIG. 19A,B).

B1: rhPARC: Recombinant human pulmonary and activation-regulated chemokine (CC chemokine CCL18), purchased from R&D Systems and Cell Sciences (protein)
chain: AQVGTNKELCCLVYTSWQIPQKFIVDYSETSPQCPKPGVILLTKRGRQICADPNKKWVQKYISDLKLNA
ERK1/2
  phosphorylation of ERK1/2: increased; also recorded: activated
Lung fibroblasts
  concentration causing detectable stimulation of collagen production: below 300 ng/ml
Lung fibroblasts; LF1 and LF4, 30 ng/ml and 300 ng/ml rhPARC
  collagen production, dose-response: significant increase in collagen production
Lung fibroblasts; LF1 and LF4, 3, 6 and 12 h of activation
  increase in collagen production over control non-treated cells: ≤ 1.2±0.2 fold
Lung fibroblasts; LF2 cells, 300 ng/ml rhPARC, 48 h
  combined density of procollagen bands, fold higher than non-stimulated control: 4.2 fold
Lung fibroblasts; LF4, 300 ng/ml rhPARC, 24 h
  increase in densities of the collagen bands relative to the control culture: 4.4
Lung fibroblasts; LF4, 300 ng/ml rhPARC, 48 h
  increase in densities of the collagen bands relative to the control culture: 3.2
Lung fibroblasts; LF4, 300 ng/ml rhPARC, 72 h
  increase in collagen production, densitometry at shorter non-saturating exposure: 3.4 fold
Lung fibroblasts; LF4, 300 ng/ml rhPARC, 72 h, bands saturated
  increase in densities of the collagen bands relative to the control culture: 1.3
Lung fibroblasts; LF4 cells, 100 ng/ml rhPARC, 48 h
  combined density of procollagen bands, fold higher than non-stimulated control: 3.6 fold
TGF-β1; 3-72 h, lung and dermal fibroblast lines
  maximal increase in production of TGFβ1 by fibroblasts: 1.3±0.2 fold
TGF-β1; primary lung fibroblast cultures
  total TGF-β1 in culture supernatants after stimulation: decreased
Sp1
  DNA binding by Sp1 (EMSA): three-fold increase; also recorded: activates transcription factor Sp1
Mouse fibroblasts; Smad3-/- mouse fibroblasts
  collagen production response to PARC stimulation: did not
Mouse fibroblasts; wild-type mouse fibroblasts
  collagen production response to PARC stimulation: responded to PARC stimulation by upregulating collagen production
